What was measured:
[1] = biological target: T1, Full length untagged human MDM2 (Murine double minute 2) (human, UniProt Q00987 1-491); assay: atomic force spectroscopy
[2] = biological target: T1, Full length untagged human MDM2 (Murine …); assay: SPR

T1 sequence (Q00987 whole entry): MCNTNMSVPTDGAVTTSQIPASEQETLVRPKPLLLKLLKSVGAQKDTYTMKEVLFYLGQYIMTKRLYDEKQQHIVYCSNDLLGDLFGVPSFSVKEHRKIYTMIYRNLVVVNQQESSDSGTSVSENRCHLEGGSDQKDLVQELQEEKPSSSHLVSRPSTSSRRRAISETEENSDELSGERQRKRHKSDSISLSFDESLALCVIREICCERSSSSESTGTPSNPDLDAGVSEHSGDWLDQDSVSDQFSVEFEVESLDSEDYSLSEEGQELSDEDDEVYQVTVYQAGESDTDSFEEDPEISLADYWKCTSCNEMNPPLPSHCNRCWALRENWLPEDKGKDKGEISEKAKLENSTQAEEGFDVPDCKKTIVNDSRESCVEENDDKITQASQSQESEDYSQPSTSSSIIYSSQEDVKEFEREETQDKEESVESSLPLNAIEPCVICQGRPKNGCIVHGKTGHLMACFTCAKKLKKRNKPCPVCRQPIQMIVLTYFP

koff [1]: 0.02 ± 0.01 s⁻¹
Kd [2]: 2 µM
B1: Full length N-terminal glutathione S-transferase (GST)-tagged human MDM4 (Murine double minute 4) (natural protein, UniProt O15151 1-490, looked up)
chain: MTSFSTSAQCSTSDSACRISPGQINQVRPKLPLLKILHAAGAQGEMFTVKEVMHYLGQYIMVKQLYDQQEQHMVYCGGDLLGELLGRQSFSVKDPSPLYDMLRKNLVTLATATTDAAQTLALAQDHSMDIPSQDQLKQSAEESSTSRKRTTEDDIPTLPTSEHKCIHSREDEDLIENLAQDETSRLDLGFEEWDVAGLPWWFLGNLRSNYTPRSNGSTDLQTNQDVGTAIVSDTTDDLWFLNESVSEQLGVGIKVEAADTEQTSEEVGKVSDKKVIEVGKNDDLEDSKSLSDDTDVEVTSEDEWQCTECKKFNSPSKRYCFRCWALRKDWYSDCSKLTHSLSTSDITAIPEKENEGNDVPDCRRTISAPVVRPKDAYIKKENSKLFDPCNSVEFLDLAHSSESQETISSMGEQLDNLSEQRTDTENMEDCQNLLKPCSLCEKRPRDGNIIHGRTGHLVTCFHCARRLKKAGASCPICKKEIQLVIKVFIA
